Legend:
[1] = target: Arkadia RING 68 aa (human) (UniProt Q6ZNA4); assay: ITC; Microcal PEAQ ITC, 25 °C; 75-200 uM Arkadia polypeptide in the cell, 0.75-2 mM UBCH5B from the syringe in 2 uL injections; single site-binding model
[2] = target: Arkadia 119 aa polypeptide (human) (UniProt Q6ZNA4); assay: as above
Arkadia 119 aa polypeptide (human), sequence (Q6ZNA4 876-994): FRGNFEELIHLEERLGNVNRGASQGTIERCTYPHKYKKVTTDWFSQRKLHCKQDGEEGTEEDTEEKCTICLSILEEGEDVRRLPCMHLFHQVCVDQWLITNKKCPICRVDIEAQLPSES

UBCH5B, sequence (P62837 whole entry): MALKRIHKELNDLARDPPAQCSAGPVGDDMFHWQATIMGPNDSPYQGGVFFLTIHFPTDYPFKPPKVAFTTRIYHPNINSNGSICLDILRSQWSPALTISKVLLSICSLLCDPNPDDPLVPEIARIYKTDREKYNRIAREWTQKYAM
Arkadia RING 68 aa (human), sequence (Q6ZNA4 927-994): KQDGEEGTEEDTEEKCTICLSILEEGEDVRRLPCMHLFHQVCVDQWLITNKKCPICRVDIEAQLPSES

- dH [1]: 3.1 kcal/mol
- stoichiometry N [1]: 1
- dH [2]: -4.7 kcal/mol
- stoichiometry N [2]: 0.6
Substance: UBCH5B (from UniProt P62837 1-147) (enzyme)
